Test results as given in article doi:10.1101/2024.05.29.596243 (bioRxiv, 2024).

Target: the molecule itself
Assay: cryo-electron tomography with subtomogram averaging

B1: H+-ATPase Pma1 (natural protein, UniProt Q6FXU5 1-902, looked up)
chain: MSDVESNNEKPPQDVYEDEEMSEDDDIDALIEELQSHHGMGDDDDSEDEGHHTGSARVVPEEYLQTDPSYGLTSDEVAHRRKKYGLNQMADERESMIVKFVMFFVGPIQFVMEAAAILAAGLSDWVDFGVICGLLMLNACVGFIQEFQAGSIVDELKKTLANVAVVIRDGQLVEVPANEVVPGDILQLEDGTIIPADGRLVTENCFLQVDQSAITGESLAVDKGYGDQTFSSSTVKRGEAFMVVTATGDNTFVGRAAALVNKASGGQGHFTEVLNGIGILLLVLVIVTLLGVWAACFYRTDNIVKILRFTLGITIIGVPVGLPAVVTTTMAVGAAYLAKKQAIVQKLSAIESLAGVEILCSDKTGTLTKNKLSLHEPYTVEGVSADDLMLTACLAASRKKKGLDAIDKAFLKSLINYPKAKDALTKYKVIEFHPFDPVSKKVTAVVESPEGERIVCVKGAPLFVLKTVEEDHPIPEDVHENYENKVAELASRGFRALGVARKRGEGHWEILGVMPCMDPPRDDTAETVNEARRLGLRVKMLTGDAVGIAKETCRQLGLGTNIYNAERLGLGGGGDMPGSELADFVENADGFAEVFPQHKYKVVEILQNRGYLVAMTGDGVNDAPSLKKADTGIAVEGASDAARSAADIVFLAPGLSAIIDALKTSRQIFHRMYSYVVYRIALSLHLELFLGLWIIILNHSLDIELIVFIAIFADVATLAIAYDNAPFSQTPVKWNLPRLWGMSIILGIVLAIGTWICLTTMFLPRGGIIQNFGSIDGVLFLQISLTENWLIFVTRAVGPFWSSIPSWQLAGAVFAVDIIATMFTLFGWFSQNWTDIVTVVKIYIWSIGVFCVLGGFYYIMSESVVFDRLMNGKPLKEEKSTRSVEDFLAAMQRVSTQHEKEN
stoichiometry N: 6
